Assay results as given in IntAct's records for PubMed 25775511.

B1: Transducer of Cdc42-dependent actin assembly protein 2 homolog (Caenorhabditis elegans), Q9XUS7 (parent)
chain: MIPVSRFFTVQDPSNALLSYTQKGIDFFEKLGQFSKEKAAIEEEYSTKLRSLAKKYAKKSEEDDEILKSVSYTSSFNSFLQQLDQIATRHQTSAEHIRGGVVSYVASKTCQMRSSRKNAINDLKTINDKLEDQINEMCKSGKCYLKSFKDAENSYQKFYKADKNLEISRLELEKARALANARNEACELAKQDYSALVRKTNAEQKRYHVELLPVIFARLKAVDKECIADMRQVLQKIVSFDDSLADSTEECRKIMQREVGKIDAEGDAQLVLKSVEATIEQPAPFEIEDLGDPKNCDSRTNDSADGSGGKLLKSSPSKNRIIRNFLGILKEKEADEKPEASNNDQLMYTDKSKPAHVRLSCLRSKIRDMEKQLEQAIQGREGITRLQQAYYTNPQHGNPSACTEPLISYAKKIEKLKMDIHNLKEFYAMLEMSVEEGQERSFGGRDTPDTTRSMSGSSTNQSSSKTIEDVLSGEAGNSSSADDSSKNILRQLFTTPKRLISSPKTSKSSTPTPLRRRAEISSPKILRSSFSGAIRKSLSTPDSVKVETAVTVTALFEFAKSSAETMSIEQGEILLVLEHDHGDGWTRTKNCRKHNEESGFVPTSYLQFPQ

Variants of: B1
Settings: with cdc42_caeel cdc-42, Q05062
Chain of cdc42_caeel cdc-42, Q05062 (Q05062 whole entry): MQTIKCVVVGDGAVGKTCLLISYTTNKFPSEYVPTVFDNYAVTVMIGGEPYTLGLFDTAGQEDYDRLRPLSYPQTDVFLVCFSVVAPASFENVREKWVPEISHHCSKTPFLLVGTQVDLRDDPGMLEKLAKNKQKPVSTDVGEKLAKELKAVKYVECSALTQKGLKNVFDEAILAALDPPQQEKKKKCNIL

effect of a mutation on the interaction | Variant
disrupting interaction strength | I413S
